In patent US9066906B2, “Lunasin-containing complex and purification of lunasin from plants” (University of Louisville Research Foundation, Inc., priority 2009, dated 2015):
“Also recorded” adds a separate entry of the source.

Tests used:
[1] = tested on: SK-BR-3 human breast cancer cells; experiment: MTS cell proliferation assay, lunasin in combination with curcumin; type: cell-based; conditions: FIG. 7; for effect on the antiproliferative effect of curcumin: SK-BR-3 breast cancer cells, in combination with curcumin
Protocol: FIGS. 7A and 7B include the results of MTS cell proliferation assays, using SK-BR-3 human breast cancer cells, performed in the absence or presence of either synthetic lunasin or purified soybean-derived lunasin in combination with curcumin over a 1-3 day period.
MTS cell proliferation assays using SK-BR-3 human breast cancer cells were performed in the absence or presence of either synthetic lunasin or purified soybean-derived lunasin in combination with curcumin over a 2-3 day period. SK-BR-3 cells, whose growth were unaffected by lunasin alone, were inhibited up to 98% when combined with curcumin.
With reference to FIG. 7, synthetic lunasin and highly purified soybean-derived lunasin were used in combination with curcumin in an in vitro cell proliferation assays to assess the activity of lunasin against specific cancer cell lines.

human histone H4 (hH4) = human histone H4 (hH4) (Homo sapiens, UniProt P62805); experiment: in vitro histone binding assay (microtiter plate, anti-lunasin antibody, absorbance at 450 nm); conditions: FIG. 3
Text: (§1) The ability of lunasin, purified from soybean white flake in accordance with the presently-disclosed subject matter, to bind the cores histones H3 and H4 was studied. […] To confirm the biological activity of the lunasin purified from soybean white flake using the methods in the subject matter disclosed herein, an in vitro binding assay was used to assess binding to the human H3 and H4 proteins.
(§2) Increasing amounts of histone 3.3 (hH3.3) and histone 4 (hH4) were bound to wells of a […] microtiter plate. Different amounts of either synthetic lunasin or purified lunasin were added to the wells and allowed to bind. The concentration of lunasin bound was determined using a polyclonal antibody against lunasin and a horseradish peroxidase conjugated antibody that recognizes the lunasin antibody. Binding was quantitated by measuring the absorbance at 450 nm.

human histone H3 (hH3.3) = human histone H3 (hH3.3) (Homo sapiens, UniProt P84243); experiment: as above; conditions: FIG. 3
Text: as §1, §2

[2] = tested on: H1299, non-small cell lung cancer; experiment: MTS cell proliferation assay; type: cell-based, human; conditions: lunasin 30 or 100 μM, complex 10 or 30 μM, 72 hours, FIG. 4
Protocol: (§3) The ability of lunasin, purified from soybean white flake in accordance with the presently-disclosed subject matter, to inhibit the proliferation of specific cancer cell lines was studied. Recent studies have shown that lunasin and lunasin-containing protein preparations can inhibit the proliferation of several cancer cell lines in vitro. To further assess and confirm the biological activity of lunasin and the lunasin-containing complex, cell proliferation assays were conducted with a panel of established cancer cell lines.
(§4) A panel of cancer cell lines was collected from colleagues or purchased from the American Type Culture Collection. Cells were grown in the appropriate medium and treated with PBS (control), lunasin (30 or 100 μM), or the lunasin-containing complex (10 or 30 μM) for 72 hours. Cell viability was assessed using a standard [3-(4,5-dimethylthiazol-2-yl)-5-(3-carboxymethoxy-phenyl)-2-(4-sulfo-phenyl)-2H-tetrazolium (MTS) assay. The data shown (FIG. 4) represent the number of viable cells relative to the PBS-treated controls. The human cell lines tested were: H661, non-small cell lung cancer; H1299, non-small cell lung cancer; SKBR3, adenocarcinoma mammary gland origin; MDA-MB-231, adenocarcinoma, mammary gland origin; MCF-7, adenocarcinoma, mammary gland origin; and HT-29, adenocarcinoma, colon origin.

[3] = tested on: H661, non-small cell lung cancer; experiment: MTS cell proliferation assay; type: cell-based, human; conditions: lunasin 30 or 100 μM, complex 10 or 30 μM, 72 hours, FIG. 4
Protocol: as §3, §4

[4] = tested on: MDA-MB-231, adenocarcinoma, mammary gland origin; experiment: MTS cell proliferation assay; type: cell-based, human; conditions: lunasin 30 or 100 μM, complex 10 or 30 μM, 72 hours, FIG. 4
Protocol: as §3, §4

[5] = tested on: panel of cancer cell lines; experiment: MTS cell proliferation assays with a panel of established cancer cell lines; type: cell-based, human; conditions: 72 hours, FIG. 4
Protocol: as §3, §4

[6] = tested on: HT-29, adenocarcinoma, colon origin; experiment: MTS cell proliferation assay; type: cell-based, human; conditions: complex 10 or 30 μM, 72 hours, FIG. 4
Protocol: as §3, §4

[7] = tested on: SKBR3, adenocarcinoma mammary gland origin; experiment: MTS cell proliferation assay; type: cell-based, human; conditions: complex 10 or 30 μM, 72 hours, FIG. 4
Protocol: as §3, §4

[8] = tested on: MCF-7, adenocarcinoma, mammary gland origin; experiment: MTS cell proliferation assay; type: cell-based, human; conditions: complex 10 or 30 μM, 72 hours, FIG. 4
Protocol: as §3, §4

Molecule | preference of binding, H4 versus H3 (human histone H4 (hH4)) | effect on the antiproliferative effect of curcumin [1] | binding to human histone H4 (human histone H4 (hH4)) | binding to human histone H3 (human histone H3 (hH3.3)) | growth of SK-BR-3 cells, lunasin alone ([1]; without curcumin, 2-3 day period) | growth/proliferation of H1299 cells (viable cells relative to PBS-treated controls) [2] | growth/proliferation of H661 cells (viable cells relative to PBS-treated controls) [3] | growth/proliferation of MDA-MB-231 cells (viable cells relative to PBS-treated controls) [4] | antiproliferative effectiveness compared with lunasin peptide alone [5] | proliferation of HT-29 cells (viable cells relative to PBS-treated controls) [6] | proliferation of SKBR3 cells (viable cells relative to PBS-treated controls) [7] | proliferation of MCF-7 cells (viable cells relative to PBS-treated controls) [8]
lunasin |  |  |  |  | unaffected |  |  |  |  |  |  | 
lunasin-containing complex: lunasin polypeptide of SEQ ID NO: 2 linked by disulfide bridges to a second polypeptide of SEQ ID NO: 3, 14.1 kDa, from soybean (protein, disulfide-linked complex; Glycine max) chain 1: SKWQHQQDSCRKQLQGVNLTPCEKHIMEKIQGRGDDDDDDDDDN chain 2: EGKDEDEEEEGHMQKCCTEMSELRSPKCQCKALQKIMENQSEELEEKQKKKMEKELINLATMCRFGPMIQCDLSSDD |  |  |  |  |  | most sensitive | most sensitive | most sensitive | more effective than the lunasin peptide alone | reduced proliferation | reduced proliferation | reduced proliferation

Further lines, with some results ahead:

preference of binding, H4 versus H3 (human histone H4 (hH4)) | Molecule | effect on the antiproliferative effect of curcumin [1] | binding to human histone H4 (human histone H4 (hH4)) | binding to human histone H3 (human histone H3 (hH3.3)) | growth of SK-BR-3 cells, lunasin alone ([1]; without curcumin, 2-3 day period) | growth/proliferation of H1299 cells (viable cells relative to PBS-treated controls) [2] | growth/proliferation of H661 cells (viable cells relative to PBS-treated controls) [3] | growth/proliferation of MDA-MB-231 cells (viable cells relative to PBS-treated controls) [4] | antiproliferative effectiveness compared with lunasin peptide alone [5] | proliferation of HT-29 cells (viable cells relative to PBS-treated controls) [6] | proliferation of SKBR3 cells (viable cells relative to PBS-treated controls) [7] | proliferation of MCF-7 cells (viable cells relative to PBS-treated controls) [8]
more binding to H4 compared to H3 | synthetic lunasin: synthetic lunasin created by peptide synthesis, comprised of SEQ ID NO: 1 [reference compound] | significantly enhanced the antiproliferative effect of curcumin | binding was lower than observed using the soybean-derived lunasin | binding was lower than observed using the soybean-derived lunasin |  |  |  |  |  |  |  | 
higher affinity for H4 than for H3 | soybean-derived lunasin: lunasin polypeptide purified from soybean white flake, 5139.25 Da, corresponding to SEQ ID NO: 2 (additional C-terminal Asn) (SKWQHQQDSCRKQLQGVNLTPCEKHIMEKIQGRGDDDDDDDDDN; Glycine max) | significantly enhanced the antiproliferative effect of curcumin | affinity greater than that observed using a synthetic lunasin; also recorded: bound to both H4 and H3 in a dose dependent manner | affinity greater than that observed using a synthetic lunasin; also recorded: bound to both H4 and H3 in a dose dependent manner |  | minor effect | significantly inhibit the growth | minor effect |  |  |  | 
